# Experiments:
# [1] = system: T1, truncated GST-fusion T-bet protein, C-terminal fragment
# T1 sequence (Q9UL17 whole entry, species assumed, looked up): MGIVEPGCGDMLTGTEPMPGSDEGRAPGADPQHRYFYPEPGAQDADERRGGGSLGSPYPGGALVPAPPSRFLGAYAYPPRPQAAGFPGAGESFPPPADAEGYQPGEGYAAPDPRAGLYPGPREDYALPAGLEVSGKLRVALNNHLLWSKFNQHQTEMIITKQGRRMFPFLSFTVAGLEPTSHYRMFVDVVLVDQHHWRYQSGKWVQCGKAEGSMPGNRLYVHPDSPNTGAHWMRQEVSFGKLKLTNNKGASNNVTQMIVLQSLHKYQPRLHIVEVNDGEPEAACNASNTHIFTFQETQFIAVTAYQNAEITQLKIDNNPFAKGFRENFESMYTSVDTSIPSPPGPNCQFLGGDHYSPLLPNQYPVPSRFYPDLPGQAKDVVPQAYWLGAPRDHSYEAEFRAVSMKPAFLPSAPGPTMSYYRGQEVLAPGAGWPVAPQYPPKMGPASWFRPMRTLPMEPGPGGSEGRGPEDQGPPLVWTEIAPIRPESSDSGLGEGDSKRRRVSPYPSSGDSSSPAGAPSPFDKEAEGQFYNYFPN
# [2] = system: T2, truncated GST-fusion T-bet protein, N-terminal fragment
# T2 sequence (Q9UL17 whole entry, species assumed, looked up): T1 sequence (Q9UL17 whole entry, species assumed, looked up)
substance,measurement,setting,value
"RLK-MYC (resting lymphocyte kinase, MYC-tagged)","in vitro kinase assay (32P-ATP, autoradiography)",[1],"both the N and C terminal fragments but not the DNA binding domain, could be phosphorylated by the Tec kinases, ITK and RLK"
same,"in vitro kinase assay (32P-ATP, autoradiography)",[2],"both the N and C terminal fragments but not the DNA binding domain, could be phosphorylated by the Tec kinases, ITK and RLK"

# Source: patent US20060223116
